Two molecules from patent US20240261333A1 (published 2024) can be followed below.

Holding throughout (experiment): co-IP with anti-FLAG, N-FLAG B3GNT2, mass spectrometry
Assay [1] deals with RPL38 (human, UniProt P63173 1-70). On the procedure:
(§1) Cells were plated in 10-cm cell culture dishes and grown to 60-80% confluency. For each condition, two biological replicates were harvested for co-IP. Cells were washed with PBS and 4 mL of lysis buffer (20 mM HEPES, 1% Triton X-100, 150 mM NaCl, 1 mM EDTA, and 10% glycerol) containing protease inhibitor cocktail was added. Cells were scraped and lysate was incubated at 4° C. under rotary agitation for 1 h. Lysate was centrifuged at 14,000×g for 10 min at 4° C. Supernatant was transferred to a new tube and an aliquot was taken as the input. […] For Western blots, 10 μg/mL Chicken Anti-FLAG (Aves labs ET-DY100) and IgY control (R&D Systems AB-101-C) antibodies were biotinylated (Thermo Fisher Scientific 90407) and added to the respective conditions. Lysates with antibodies were incubated at 4° C. under rotary agitation overnight. For each mL of lysate, 50 μL of Pierce Protein A/G Magnetic Beads (Mass spectrometry; Thermo Fisher Scientific 88803) or Pierce Streptavidin Magnetic Beads (Western blot; Thermo Fisher Scientific 88817) was washed twice with lysis buffer. Lysates with antibodies were added to the beads and incubated at 4° C. under rotary agitation for 4 h. Beads were washed with lysis buffer 3 times and resuspended in lysis buffer for storage.
(§2) Magnetic beads were resuspended in 100 mM Tris pH 7.8, reduced, alkylated and digested with trypsin at 37° ° C. overnight. This solution was subjected to solid phase extraction to concentrate the peptides and remove unwanted reagents followed by injection onto a Shimadzu HPLC with fraction collector. Eight fractions were collected and after concentration were injected on a Waters NanoAcquity HPLC equipped with a self-packed Aeris 3 μm C18 analytical column 0.075 mm by 20 cm, (Phenomenex). Peptides were eluted using standard reverse-phase gradients. The effluent from the column was analyzed using a Thermo Orbitrap Elite mass spectrometer (nanospray configuration) operated in a data dependent manner for 54 minutes. The resulting fragmentation spectra were correlated against the known database using Proteome Discover 1.4 (Thermo Fisher Scientific).

Assay [2] deals with T1, EIF3A (human, UniProt Q14152 2-1382).
T1 construct: also called NP_003741.1
Here is the method:
as §1, §2

For assay [3], the target named is T2, TGM1 (human, UniProt P22735 1-817, limits assumed).
T2 construct: also called NP_000350.1
T2 sequence (looked up): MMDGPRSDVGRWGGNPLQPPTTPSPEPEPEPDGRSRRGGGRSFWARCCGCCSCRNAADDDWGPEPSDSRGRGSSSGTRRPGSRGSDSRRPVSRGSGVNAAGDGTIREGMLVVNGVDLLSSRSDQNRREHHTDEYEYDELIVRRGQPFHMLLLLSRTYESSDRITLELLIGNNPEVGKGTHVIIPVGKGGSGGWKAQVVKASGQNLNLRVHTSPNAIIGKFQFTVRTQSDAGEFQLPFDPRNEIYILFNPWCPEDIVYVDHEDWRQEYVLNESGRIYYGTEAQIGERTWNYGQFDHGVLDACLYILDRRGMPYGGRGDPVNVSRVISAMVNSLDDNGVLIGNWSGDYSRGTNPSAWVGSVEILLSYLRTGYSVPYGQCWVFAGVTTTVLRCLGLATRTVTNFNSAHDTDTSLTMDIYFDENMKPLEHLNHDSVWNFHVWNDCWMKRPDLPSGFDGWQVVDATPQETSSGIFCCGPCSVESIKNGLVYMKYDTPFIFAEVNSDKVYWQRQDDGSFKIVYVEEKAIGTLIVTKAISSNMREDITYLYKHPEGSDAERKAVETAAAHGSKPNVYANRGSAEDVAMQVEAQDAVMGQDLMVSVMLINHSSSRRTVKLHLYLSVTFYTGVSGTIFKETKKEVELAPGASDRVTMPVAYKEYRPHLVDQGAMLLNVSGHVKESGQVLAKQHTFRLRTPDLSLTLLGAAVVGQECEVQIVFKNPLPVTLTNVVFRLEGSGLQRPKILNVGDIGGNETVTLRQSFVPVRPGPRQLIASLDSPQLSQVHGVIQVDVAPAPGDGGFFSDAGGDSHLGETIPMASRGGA
Here is the method:
as §1, §2

Assay [4] has as its target RPS20 (human, UniProt P60866 2-119). On the procedure:
as §1, §2

Assay [5] addresses T3, TTC13 (human, UniProt Q8NBP0-2 1-806, limits assumed).
T3 construct: also called NP_001116307.2 (+5)
T3 sequence (looked up): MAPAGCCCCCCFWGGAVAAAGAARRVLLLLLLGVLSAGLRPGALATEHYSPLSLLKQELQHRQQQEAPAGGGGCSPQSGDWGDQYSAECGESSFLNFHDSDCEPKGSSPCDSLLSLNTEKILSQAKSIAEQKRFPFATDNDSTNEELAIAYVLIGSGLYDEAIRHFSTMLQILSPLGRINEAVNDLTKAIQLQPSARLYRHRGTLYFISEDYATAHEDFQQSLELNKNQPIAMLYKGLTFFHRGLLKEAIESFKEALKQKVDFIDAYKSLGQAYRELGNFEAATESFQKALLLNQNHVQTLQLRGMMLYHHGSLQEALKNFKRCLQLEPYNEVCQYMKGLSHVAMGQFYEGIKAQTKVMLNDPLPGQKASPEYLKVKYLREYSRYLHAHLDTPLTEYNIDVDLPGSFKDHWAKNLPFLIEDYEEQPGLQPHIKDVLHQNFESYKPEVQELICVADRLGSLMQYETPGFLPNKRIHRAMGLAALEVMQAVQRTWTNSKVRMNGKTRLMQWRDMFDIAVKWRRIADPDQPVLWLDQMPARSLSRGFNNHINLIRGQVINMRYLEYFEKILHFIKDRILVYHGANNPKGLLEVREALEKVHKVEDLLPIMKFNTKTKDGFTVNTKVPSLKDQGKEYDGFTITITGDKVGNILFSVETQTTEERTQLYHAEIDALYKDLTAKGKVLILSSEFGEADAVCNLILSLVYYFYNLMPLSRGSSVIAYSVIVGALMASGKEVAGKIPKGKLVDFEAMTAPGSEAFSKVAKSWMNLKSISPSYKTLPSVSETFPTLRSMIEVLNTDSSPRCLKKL
Here is the method: as §1, §2

T1 sequence (Q14152 2-1382 limits assumed): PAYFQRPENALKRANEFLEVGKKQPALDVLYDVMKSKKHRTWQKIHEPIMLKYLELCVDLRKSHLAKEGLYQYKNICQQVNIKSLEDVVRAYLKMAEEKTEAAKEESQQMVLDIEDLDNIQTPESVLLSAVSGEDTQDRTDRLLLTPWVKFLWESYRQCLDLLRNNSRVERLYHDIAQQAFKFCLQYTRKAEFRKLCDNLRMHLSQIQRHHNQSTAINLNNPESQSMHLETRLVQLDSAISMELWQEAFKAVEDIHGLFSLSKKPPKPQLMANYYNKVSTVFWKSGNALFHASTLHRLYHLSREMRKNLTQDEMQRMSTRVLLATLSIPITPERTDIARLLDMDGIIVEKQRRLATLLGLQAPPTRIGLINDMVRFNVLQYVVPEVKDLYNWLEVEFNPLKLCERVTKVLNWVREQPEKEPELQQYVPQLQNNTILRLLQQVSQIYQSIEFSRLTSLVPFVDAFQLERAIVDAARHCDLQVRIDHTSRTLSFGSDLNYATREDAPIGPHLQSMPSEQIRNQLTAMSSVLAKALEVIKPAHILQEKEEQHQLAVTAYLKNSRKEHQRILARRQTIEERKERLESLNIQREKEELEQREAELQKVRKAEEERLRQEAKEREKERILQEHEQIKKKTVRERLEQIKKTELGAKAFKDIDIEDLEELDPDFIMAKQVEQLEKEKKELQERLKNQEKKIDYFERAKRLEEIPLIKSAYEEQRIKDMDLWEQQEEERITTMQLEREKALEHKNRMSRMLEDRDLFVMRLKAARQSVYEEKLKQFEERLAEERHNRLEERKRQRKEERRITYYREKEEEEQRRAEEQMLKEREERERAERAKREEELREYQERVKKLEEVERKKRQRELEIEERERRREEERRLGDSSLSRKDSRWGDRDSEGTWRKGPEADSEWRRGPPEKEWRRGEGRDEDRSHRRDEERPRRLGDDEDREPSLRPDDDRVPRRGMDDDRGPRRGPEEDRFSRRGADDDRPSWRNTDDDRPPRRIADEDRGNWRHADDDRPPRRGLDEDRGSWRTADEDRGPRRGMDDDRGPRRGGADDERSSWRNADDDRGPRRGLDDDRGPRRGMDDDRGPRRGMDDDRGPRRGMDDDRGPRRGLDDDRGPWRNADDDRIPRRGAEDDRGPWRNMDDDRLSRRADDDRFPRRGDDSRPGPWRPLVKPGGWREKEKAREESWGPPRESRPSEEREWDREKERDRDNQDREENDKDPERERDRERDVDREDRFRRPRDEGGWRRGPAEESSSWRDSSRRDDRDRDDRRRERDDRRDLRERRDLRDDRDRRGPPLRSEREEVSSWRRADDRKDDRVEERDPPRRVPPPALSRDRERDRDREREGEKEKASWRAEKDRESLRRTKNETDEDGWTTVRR

B1: N-terminal FLAG tagged B3GNT2 (enzyme, human, UniProt Q9NY97 1-397, looked up)
chain: MSVGRRRIKLLGILMMANVFIYFIMEVSKSSSQEKNGKGEVIIPKEKFWKISTPPEAYWNREQEKLNRQYNPILSMLTNQTGEAGRLSNISHLNYCEPDLRVTSVVTGFNNLPDRFKDFLLYLRCRNYSLLIDQPDKCAKKPFLLLAIKSLTPHFARRQAIRESWGQESNAGNQTVVRVFLLGQTPPEDNHPDLSDMLKFESEKHQDILMWNYRDTFFNLSLKEVLFLRWVSTSCPDTEFVFKGDDDVFVNTHHILNYLNSLSKTKAKDLFIGDVIHNAGPHRDKKLKYYIPEVVYSGLYPPYAGGGGFLYSGHLALRLYHITDQVHLYPIDDVYTGMCLQKLGLVPEKHKGFRTFDIEEKNKNNICSYVDLMLVHSRKPQEMIDIWSQLQSAHLKC
notes: FLAG-tagged ORF overexpressed in cells; pulled down from lysate with mouse anti-FLAG; also called N-FLAG B3GNT2; N-term FLAG; not shown: N-terminal FLAG tag
As for B1, the “co-IP mass spectrometry count” value in assay [1] is 9; in assay [2] it was 2.

B2: N-terminal FLAG tagged B3GNT2 (enzyme, human, UniProt Q9NY97 1-397, looked up)
chain: B1 chain
notes: FLAG-tagged ORF overexpressed in A375 cells; pulled down from the lysate with mouse anti-FLAG; also called N-FLAG B3GNT2; N-term FLAG; not shown: N-terminal FLAG tag
Consider B2, for which the entries for the “co-IP/MS count, N-term FLAG” value in assay [3], in assay [4] and in assay [5] were 17, 4 and 0, respectively.
